Results: patent US20110207796A1, “ALPHA-SYNUCLEIN KINASE” (Elan Pharma International Limited, priority 2008, published 2011)

B1: Over-Expressed PLK3 (protein, UniProt Q9H4B4 1-646, looked up)
Serine/threonine-protein …: MEPAAGFLSPRPFQRAAAAPAPPAGPGPPPSALRGPELEMLAGLPTSDPGRLITDPRSGRTYLKGRLLGKGGFARCYEATDTETGSAYAVKVIPQSRVAKPHQREKILNEIELHRDLQHRHIVRFSHHFEDADNIYIFLELCSRKSLAHIWKARHTLLEPEVRYYLRQILSGLKYLHQRGILHRDLKLGNFFITENMELKVGDFGLAARLEPPEQRKKTICGTPNYVAPEVLLRQGHGPEADVWSLGCVMYTLLCGSPPFETADLKETYRCIKQVHYTLPASLSLPARQLLAAILRASPRDRPSIDQILRHDFFTKGYTPDRLPISSCVTVPDLTPPNPARSLFAKVTKSLFGRKKKSKNHAQERDEVSGLVSGLMRTSVGHQDARPEAPAASGPAPVSLVETAPEDSSPRGTLASSGDGFEEGLTVATVVESALCALRNCIAFMPPAEQNPAPLAQPEPLVWVSKWVDYSNKFGFGYQLSSRRVAVLFNDGTHMALSANRKTVHYNPTSTKHFSFSVGAVPRALQPQLGILRYFASYMEQHLMKGGDLPSVEEVEVPAPPLLLQWVKTDQALLMLFSDGTVQVNFYGDHTKLILSGWEPLLVTFVARNRSACTYLASHLRQLGCSPDLRQRLRYALRLLRDRSPA
B2: Over-Expressed PLK2 (protein, UniProt Q9NYY3 1-685, looked up)
Serine/threonine-protein …: MELLRTITYQPAASTKMCEQALGKGCGADSKKKRPPQPPEESQPPQSQAQVPPAAPHHHHHHSHSGPEISRIIVDPTTGKRYCRGKVLGKGGFAKCYEMTDLTNNKVYAAKIIPHSRVAKPHQREKIDKEIELHRILHHKHVVQFYHYFEDKENIYILLEYCSRRSMAHILKARKVLTEPEVRYYLRQIVSGLKYLHEQEILHRDLKLGNFFINEAMELKVGDFGLAARLEPLEHRRRTICGTPNYLSPEVLNKQGHGCESDIWALGCVMYTMLLGRPPFETTNLKETYRCIREARYTMPSSLLAPAKHLIASMLSKNPEDRPSLDDIIRHDFFLQGFTPDRLSSSCCHTVPDFHLSSPAKNFFKKAAAALFGGKKDKARYIDTHNRVSKEDEDIYKLRHDLKKTSITQQPSKHRTDEELQPPTTTVARSGTPAVENKQQIGDAIRMIVRGTLGSCSSSSECLEDSTMGSVADTVARVLRGCLENMPEADCIPKEQLSTSFQWVTKWVDYSNKYGFGYQLSDHTVGVLFNNGAHMSLLPDKKTVHYYAELGQCSVFPATDAPEQFISQVTVLKYFSHYMEENLMDGGDLPSVTDIRRPRLYLLQWLKSDKALMMLFNDGTFQVNFYHDHTKIIICSQNEEYLLTYINEDRISTTFRLTTLLMSGCSSELKNRMEYALNMLLQRCN
B3: Over-Expressed PLK4 (protein, UniProt O00444 1-970, looked up)
Serine/threonine-protein …: MATCIGEKIEDFKVGNLLGKGSFAGVYRAESIHTGLEVAIKMIDKKAMYKAGMVQRVQNEVKIHCQLKHPSILELYNYFEDSNYVYLVLEMCHNGEMNRYLKNRVKPFSENEARHFMHQIITGMLYLHSHGILHRDLTLSNLLLTRNMNIKIADFGLATQLKMPHEKHYTLCGTPNYISPEIATRSAHGLESDVWSLGCMFYTLLIGRPPFDTDTVKNTLNKVVLADYEMPSFLSIEAKDLIHQLLRRNPADRLSLSSVLDHPFMSRNSSTKSKDLGTVEDSIDSGHATISTAITASSSTSISGSLFDKRRLLIGQPLPNKMTVFPKNKSSTDFSSSGDGNSFYTQWGNQETSNSGRGRVIQDAEERPHSRYLRRAYSSDRSGTSNSQSQAKTYTMERCHSAEMLSVSKRSGGGENEERYSPTDNNANIFNFFKEKTSSSSGSFERPDNNQALSNHLCPGKTPFPFADPTPQTETVQQWFGNLQINAHLRKTTEYDSISPNRDFQGHPDLQKDTSKNAWTDTKVKKNSDASDNAHSVKQQNTMKYMTALHSKPEIIQQECVFGSDPLSEQSKTRGMEPPWGYQNRTLRSITSPLVAHRLKPIRQKTKKAVVSILDSEEVCVELVKEYASQEYVKEVLQISSDGNTITIYYPNGGRGFPLADRPPSPTDNISRYSFDNLPEKYWRKYQYASRFVQLVRSKSPKITYFTRYAKCILMENSPGADFEVWFYDGVKIHKTEDFIQVIEKTGKSYTLKSESEVNSLKEEIKMYMDHANEGHRICLALESIISEEERKTRSAPFFPIIIGRKPGSTSSPKALSPPPSVDSNYPTRERASFNRMVMHSAASPTQAPILNPSMVTNEGLGLTTTASGTDISSNSLKDCLPKSAQLLKSVFVKNVGWATQLTSGAVWVQFNDGSQLVVQAGVSSISYTSPNGQTTRYGENEKLPDYIKQKLQCLSSILLMFSNPTPNFH

Test system: synuclein phosphorylation
Assay: overexpression of PLK family members with WT-synuclein in HEK-293 cells, phospho-synuclein ELISA
Assay type: cell-based, human
Details: for Proportion of total synuclein that is phoshorylated at ser-129: 48 hours post-transfection, with WT-synuclein; for Fold Change in Percent Synuclein Phosphorylation: relative to endogenous kinase (2.0%)
Method: HEK-293 naïve cells were transfected with an expression vector encoding PLK1, PLK2, PLK3, or PLK4 under the control of a CMV promoter, or empty vector, together with an expression vector encoding WT-synuclein. All vectors had the sequence coding for the protein of interest. Transfection was accomplished using Lipofectamine 2000 (Invitrogen, Carlsbad, Calif.) with 0.08 μg vector. Cells were washed and harvested 48 hours post-transfection. A Micro BCA (Pierce) total protein assay and total synuclein and phospho-synuclein ELISAs were performed on each plate of treated cells.

Row | Molecule | Proportion of total synuclein that is phoshorylated at ser-129 [%] | Fold Change in Percent Synuclein Phosphorylation
1 | B1 | 79.2 | 39.6
2 | B2 | 42.3 | 21.2
3 | B3 | 1.9 | 1.0
